Experimental data reported in patent US5432156A, “Therapeutic agent for digestive tract diseases” (Nisshin Flour Milling Co., Ltd., priority 1993, dated 1995).

Columns and labels:
intestinal mucosae = assay: Example 1: nutritional (trophic) effect on the intestinal mucosae of rats fed an elemental nutrition; type: in vivo, male SD rats
Experimental: An experiment was performed in male SD rats weighing 140-160 g which had been fed on standard food under light-dark condition of a cycle of 12 hours. The food which was replaced by an elemental nutrition (Elental®, Morishita-Roussel Japan) was taken ad lib., and remained unchanged until the experiment was finished. After feeding on the component nutrition for 3 days, administration of glicentin prepared as described below was started.
Gelatin was dissolved in warm water to a weight ratio of 16%, and the solution autoclaved and cooled to room temperature. To 40 ml of the gelatin solution was added a solution of 1 mg of glicentin in 10 ml of distilled water with stirring at room temperature. The mixture was divided into test tubes, freeze dried and stored for use.
The gelatin solution was subcutaneously given at a dose of 10 μg per glicentin every 12 hours for 7 days to examine a nutritional effect of glicentin on the intestinal mucosae. A similar gelatin solution containing no glicentin was given for the same period of time as a control for comparison. Twelve hours after completion of the final administration, the rats were sacrificed and subjected to removal of the small intestine in the region from the Treitz's ligamentum to the cecum. The removed small intestine was cut at the central site to separate it into the jejunum and the ileum. The lumen of each of the intestinal tracts was gently washed with an aqueous physiological saline solution. The intestinal tracts were longitudinally incised, respectively, and tissues were removed of a portion of the jejunum in proximity to the duodenum, a portion of the ileum in proximity to the cecum and a portion around the boundary between the jejunum and the ileum and fixed in a 3.7% formalin solution as the proximal, distal and middle sites of the small intestine, respectively. Mucosae were collected by ablation with a spatula from the remainder of the intestinal tracts and weighed, respectively.
The tissues fixed in the formalin solution were embedded in paraffin to form a preparation which was stained with hematoxylin-eosin and measured for height of the villi using an optical microscope.

male BALB/c mice = assay: Intraperitoneal administration to mice, observation of appearance; type: in vivo; details: 10 mg/kg intraperitoneally, 6 weeks age
intestinal mucosa = assay: Example 2: weight of intestinal mucosa in rats, glicentin compared with related peptides; type: in vivo; details: 1 nmol per rat s.c.
[1] = test system: motility of the digestive tracts; assay: Example 3: motility of the digestive tracts after meal in dogs (strain gauge transducers); type: in vivo, hybrid dogs
Experimental: An experiment was performed as described below in order to examine the action of glicentin on a motility of the digestive tracts after meal.
Six hybrid dogs weighing 16-18 kg were sutured with strain gauge transducers (manufactured by Star Medical, F121S) at a site of the gastric antrum 4 cm from the pyloric ring, a site of the duodenum for the main incurrent pancreatic duct and a site of the jejunum 10 cm from the Treitz's ligamentum, respectively, to measure the contractile force intensity of the circular muscle. Recovery period for the suture was 2 weeks.
Three of the 6 dogs were intravenously given over 1 hour 15 ml of a physiological saline solution in which 400 pmol of glicentin had been dissolved per kg of bodyweight. The remaining three received an aqueous physiological solution containing no glicentin in the same way as above as a control for comparison. The dogs were fed on 15 g of a solid diet (SD®, manufactured by Oriental Yeast K.K.) and 15 g of Vitaone® (manufactured by Nihon Pet Food K.K. and Kyodo Shiryo K.K.) per kg of bodyweight simultaneously with the intravenous administration.
Then, the motor activity of the digestive tracts and length of the post-feed period were measured. Intensity of the contraction in the post-feed period was integrated for the two-hour measurements and evaluated in comparison with the mean level of the signal peak in phase 3 motor activity of the intestinal tracts in hunger and taken as a motor index.

[2] = 10 μg s.c. every 12 hours for 7 days
[3] = 10 μg s.c. every 12 hours for 7 days, hematoxylin-eosin, optical microscope
[4] = 400 pmol/kg i.v. over 1 hour, post-feed contraction integrated over two hours, relative to phase 3 peak in hunger
[5] = 400 pmol/kg i.v., versus control

B1: glicentin (protein)
chain: RSLQDTEEKSRSFSASQADPLSDPDQMNEDKRHSQGTFTSDYSKYLDSRRAQDFVQWLMNTKRNRNNIA
notes: peptide of 69 amino acid residues, one of the enteroglucagons; human glicentin prepared by genetic engineering procedure
In the case of B1, the Ileal mucosal weight (intestinal mucosae; [2]) is reported as 1.04 g, the “Ileal mucosal weight per 100 g bodyweight” value (intestinal mucosae; [2]) is reported as 0.57 g/100 g bodyweight and the Jejunal mucosal weight (intestinal mucosae; [2]) is reported as 1.3 g. The “Jejunal mucosal weight per 100 g bodyweight” value (intestinal mucosae; [2]) was 0.75 g/100 g bodyweight, the “Length of small intestine” value (intestinal mucosae; [2]) was 107.0 cm and the “Length of small intestine per 100 g bodyweight” value (intestinal mucosae; [2]) was 66.4 cm/100 g bodyweight. The “Whole small intestinal mucosal weight” value (intestinal mucosae; [2]) was 2.38 g, the “Whole small intestinal mucosal weight per 100 g bodyweight” value (intestinal mucosae; [2]) was 1.32 g/100 g bodyweight and the “Villous height in distal intestine” value (intestinal mucosae; [3]) was 216 ± 8.4 μm. For the same molecule, the “Villous height in middle intestine” value (intestinal mucosae; [3]) was 354 ± 7.5 μm, the “Villous height in proximal intestine” value (intestinal mucosae; [3]) was 546 ± 18.6 μm and the “effect on ileal mucosa (in words)” value (intestinal mucosae; versus control group) was “tendency to increase”. For the same molecule, the “effect on jejunal mucosal weight (in words)” value (intestinal mucosae; versus control group) was “significantly increases”, the “effect on length of the small intestine (in words)” value (intestinal mucosae; versus control group) was “tendency to increase” and the “effect on whole small intestinal mucosal weight including jejunum and ileum (in words)” value (intestinal mucosae; versus control group) was “significantly increases”. For the same molecule, the change in appearance (male BALB/c mice) was “no change in appearance is observed”, the “effect on the weight of intestinal mucosa (in words)” value (intestinal mucosa; versus control group) was “significantly increases” and the Intestinal mucosal weight (intestinal mucosa; third quarter of the small intestine from the duodenum) was 0.614 ± 0.025 g. The “Length of post-feed period” value ([1]; 400 pmol/kg i.v. over 1 hour, given with feeding) was 13.6 ± 1.0 h, the “Motor index, duodenum” value [1, 4] was 0.675 ± 0.4 and the “Motor index, jejunum” value [1, 4] was 1.087 ± 0.2. For the same molecule, the “Motor index, stomach vestibulum” value [1, 4] was 0.878 ± 0.1, the “influence upon the length of the post-feed period (in words)” value [1, 5] was “no influence” and the “post-feed motility in the vestibulum of stomach (in words)” value [1, 5] was “inhibited”.
